The labels stand for the following.
B1: mut1 (dsDNA)
DNA 1: CTAGCTAGGGTACCCACGCCG
DNA 2: CTAGCGGCGTGGGTACCCTAG
B2: bim1 (dsDNA)
DNA 1: CTAGCTAGGGTAAACACGCCG
DNA 2: CTAGCGGCGTGTTTACCCTAG
B3: mut2 (dsDNA)
DNA 1: CTAGGCAAGGTAAGTTCTCCT
DNA 2: CTAGAGGAGAACTTACCTTGC
B4: FasL (dsDNA)
DNA 1: CTAGAATAAGTAAATAAATAA
DNA 2: CTAGTTATTTATTTACTTATT
B5: bim2 (dsDNA)
DNA 1: CTAGGCAAGGTAAACACTCCT
DNA 2: CTAGAGGAGTGTTTACCTTGC

The series deals with GST-FKH (FKHRL1/FOXO3a DNA-binding domain) (UniProt O43524 141-268, S253A). Nature of the series: EMSA.
GST-FKH (FKHRL1/FOXO3a DNA-binding domain), sequence (O43524 141-268 S253A): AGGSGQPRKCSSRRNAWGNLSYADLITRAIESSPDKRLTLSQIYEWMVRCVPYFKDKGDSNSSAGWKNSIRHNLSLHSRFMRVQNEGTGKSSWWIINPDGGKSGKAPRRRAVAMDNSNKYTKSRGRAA
On to B1, for which the binding result is on record as “no binding”.
For the molecule B2, the binding result is given as “binds”.
As to B3, the binding result is “no binding”.
On to B4, for which the binding result was “binds”.
Regarding B5, the binding result is on record as “binds”.

Values taken from PMC2173804.
